Test results published in patent publication US6689362B1, “Method for treating T-lineage leukemias and lymphomas using a CD7-specific monoclonal antibody (TXU-7) linked to the pokeweed antiviral protein (PAP)” (priority 1997, dated 2004).
“And” between values parts separate entries of the source, which are not always exact repeats. Identical values can stand only once. Like-named read-outs stand apart in the source and are kept apart here.

Legend:
[1] = test system: ribosomes (nuclease-treated rabbit reticulocyte lysate); experiment: Cell-free protein synthesis inhibition assay (rabbit reticulocyte cell-free translation); type: biochemical
Method: The ribosome-inhibiting activity of PAP was analyzed in a cell-free translation system obtained in kit form from Promega Biotec, Inc. (Madison, Wis.) and based on a method developed by Pelham and Jackson. Pelham et al., Eur. J. Biochem., 67, 247 (1976). This system consists of the following: nuclease-treated rabbit reticulocyte lysate (35 μL), 1 mM animo acid mixture minus leucine (1 μl), [^3H] leucine (183 Ci/mmol, 1 mCi/mL, Amersham Corp., Arlington Hts, Ill.), 5 μl of brome mosaic virus RNA (2 μL of 0.5 μg/μL stock), and water or buffer to bring the final volume to 50 μL per assay tube. Samples are diluted in PBS and 2.5-5 μL amounts were added to the lysate. Control samples minus toxin were set up in triplicate. At 0 hr (immediately after adding [^3H]-leucine and RNA and mixing gently to start the reaction), 10 μL aliquots were removed from the control and mixed with 1 mL 1 N NaOH to stop the reaction. The control toxin-treated samples were incubated an additional 60 minutes at 37° C., at which time 10 μL samples were again removed to NaOH, mixed, and 50 μL of 30% H2O2 added to decolorize the samples.
Following 10 minutes incubation at 37° C., the tubes were transferred to an ice bath and 2 mL of cold 4% casamino acids followed by 2 mL of cold 50% trichioroacetic acid (TCA) were added to precipitate the synthesized protein. After 30 minutes on ice, the samples were filtered through GF/F glass microfiber filters (Whatman, Hillsboro, Oreg.). The extent of protein synthesis inactivation is determined as percent control response=100 ×([^3H]-leucine incorporation [mean cpm at t60′−mean cpm at t0] for the toxin-treated samples)/([^3H]-leucine incorporation [mean cpm at t60′−mean cpm at t0] for the untreated control).

BALB/c mice = experiment: Acute toxicity of PAP, single i.v. injection; type: in vivo
Method: Female BALB/c mice weighing approximately 20 grams were given a single intravenous injection of purified PAP (Lot #P-1993) via the tail vein. Eight different doses were used ranging from 10 μg to 175 μg and each dose was tested in 5 mice. Mice were monitored for 30 days for morbidity and mortality. […] This non-toxic dose is >90-fold higher than the highest PAP dose that will be given to patients as a TXU-7 antibody conjugate. Deaths were observed only in the groups receiving 150 μg/20 g mouse (=7.5 mg/kg) or higher doses.

B1: PAP: 29 kDa ribosome-inactivating protein from spring leaves of pokeweed (Phytolacca americana) (protein)
chain: VNTIIYNVGSTTISKYATFLNDLRNEAKDPSLKCYGIPMLPNTNTNPKYVLVELQGSNKKTITLMLRRNNLYVMGYSDPFETNKCRYHIFNDISGTERQDVETTLCPNANSRVSKNINFDSRYPTLESKAGVKSRSQVQLGIQILDSNIGKISGVMSFTEKTEAEFLLVAIQMVSEAARFKYIENQVKTNFNRAFNPNPKVLNLQETWGKISTAIHDAKNGVLPKPLELVDASGAKWIVLRVDEIKPDVALLNYVGGSCQTTY
- IC (mean SE) value, ribosome inhibitory activity (first IC value) ([1]; purified PAP batches (n=6)): 0.34 ± 0.06 ng/mL
- IC value, ribosome inhibitory activity (second IC value) ([1]; purified PAP batches (n=6)): 3.7±1.1 ng/mL and 130.37 pM
- IC50 ([1]; purified PAP batches (n=6), read-out: IC value, ribosome inhibitory activity (first IC value)): 0.0122 nM
- range of first IC value ([1]; range over PAP batches (n=6)): 0.17 to 0.58 ng/mL
- range of second IC value ([1]; range over PAP batches (n=6)): 0.63-7.5 ng/mL and 22-263 pM
- IC50 ([1]; range over PAP batches (n=6), read-out: range of first IC value): 0.006 to 0.02 nM
- non-toxic dose relative to highest PAP dose to be given to patients as conjugate (BALB/c mice; 100 μg/20 g mouse dose): > 90 fold
- lethal dose relative to highest PAP dose to be given to patients as TXU-7-PAP (BALB/c mice; 150 μg/20 g mouse dose): > 60 fold
- Acute Toxicity in Mice LD50 (i.v.) (BALB/c mice; i.v.): LD50 (i.v.) 150 mg/mouse
